Assays:
[1] = Ability of other cytokines to enhance the effect of the QS21/MPL adjuvant; settings: cytokine added in place of IL-12
[2] = Systemic toxicity of locally injected IL12 in immunised mice; format: in vivo

Molecule	enhancement of the effect of the QS21/MPL adjuvant [1]	systemic toxicity ([2]; decreased IL12 dose ('at that dose', b48: 10ng or 30 ng as printed))	systemic toxic effects ([2]; high dose of IL12 (100ng (1000U)/mouse/day), P1A experiment)	systemic toxicity ([2]; high dose of IL12 (1μg/mouse/day), injected locally, P198 experiments)
IL-6: other cytokine tested with the QS21/MPL adjuvant	unable to enhance			
GM-CSF: other cytokine tested with the QS21/MPL adjuvant	unable to enhance			
IFN-γ: other cytokine tested with the QS21/MPL adjuvant	unable to enhance			
IL12: murine IL12 purified from the supernatant of transfected P1HTR cells; heterodimeric cytokine (protein, UniProt P43431 23-215; P43432 23-335, looked up) Interleukin-12 subunit alpha: RVIPVSGPARCLSQSRNLLKTTDDMVKTAREKLKHYSCTAEDIDHEDITRDQTSTLKTCLPLELHKNESCLATRETSSTTRGSCLPPQKTSLMMTLCLGSIYEDLKMYQTEFQAINAALQNHNHQQIILDKGMLVAIDELMQSLNHNGETLRQKPPVGEADPYRVKMKLCILLHAFSTRVVTINRVMGYLSSA Interleukin-12 subunit beta: MWELEKDVYVVEVDWTPDAPGETVNLTCDTPEEDDITWTSDQRHGVIGSGKTLTITVKEFLDAGQYTCHKGGETLSHSHLLLHKKENGIWSTEILKNFKNKTFLKCEAPNYSGRFTCSWLVQRNMDLKFNIKSSSSSPDSRAVTCGMASLSAEKVTLDQRDYEKYSVSCQEDVTCPTAEETLPIELALEARQQNKYENYSTSFFIRDIIKPDPPKNLQMKPLKNSQVEVSWEYPDSWSTPHSYFSLKFFVRIQRKKEKMKETEEGCNQKGAFLVEKTSTEVQCKGGNVCVQAQDRYYNSSCSKWACVPCRVRS		largely reduced but not totally absent	we observed systemic toxic effects	systemic toxicity with symptoms similar to those observed in a LPS shock
IL-7: other cytokine tested with the QS21/MPL adjuvant (protein, UniProt P13232 26-177, looked up) Interleukin-7: DCDIEGKDGKQYESVLMVSIDQLLDSMKEIGSNCLNNEFNFFKRHICDANKEGMFLFRAARKLRQFLKMNSTGDFDLHLLKVSEGTTILLNCTGQVKGRKPAALGEAQPTKSLEENKSLKEQKKLNDLCFLKRLLQEIKTCWNKILMGTKEH	unable to enhance			
